In US20240190920A1, “BECLIN 1-TARGETED STAPLED PEPTIDE AND PHARMACEUTICAL COMPOSITION” (Shenzhen Research Institute of the Hong Kong Polytechnic …, priority 2021, published 2024):
Bridge positions count the residues as written; N and C are the ends. Square brackets hold non-standard residues; d marks the D form. R8 = C=CCCCCCC[C@@](C)(N)C(=O)O; S5 = C=CCCC[C@](C)(N)C(=O)O

Assays:
[1] = target: T1, Beclin 1 coiled coil domain (human Beclin 1, residues 176-268) (human), Q14457; assay: ITC, peptide titrated into Beclin 1 coiled coil domain, 25 C, one-site model
T1 sequence (Q14457 176-268 limits assumed): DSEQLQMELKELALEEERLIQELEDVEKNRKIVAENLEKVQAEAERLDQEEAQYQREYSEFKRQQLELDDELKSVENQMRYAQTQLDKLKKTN

[2] = target: T1, Beclin 1 coiled coil domain (human …); assay: ITC, compared with Tat-SP4

Binder	Kd [1] [µM]	fold stronger binding affinity than Tat-SP4 [2] [fold]
Ac-YGRKKRRQRRRALIQ[R8]QEDVEK[S5]RKR-NH2 (staple 16-23; SMILES CC[C@H](C)[C@H](NC(=O)[C@H](CC(C)C)NC(=O)[C@H](C)NC(=O)[C@H](CCCNC(=N)N)NC(=O)[C@H](CCCNC(=N)N)NC(=O)[C@H](CCCNC(=N)N)NC(=O)[C@H](CCC(N)=O)NC(=O)[C@H](CCCNC(=N)N)NC(=O)[C@H](CCCNC(=N)N)NC(=O)[C@H](CCCCN)NC(=O)[C@H](CCCCN)NC(=O)[C@H](CCCNC(=N)N)NC(=O)CNC(=O)[C@H](Cc1ccc(O)cc1)NC(C)=O)C(=O)N[C@@H](CCC(N)=O)C(=O)N[C@]1(C)CCCCCCC=CCCC[C@@](C)(C(=O)N[C@@H](CCCNC(=N)N)C(=O)N[C@@H](CCCCN)C(=O)N[C@@H](CCCNC(=N)N)C(N)=O)NC(=O)[C@H](CCCCN)NC(=O)[C@H](CCC(=O)O)NC(=O)[C@H](C(C)C)NC(=O)[C@H](CC(=O)O)NC(=O)[C@H](CCC(=O)O)NC(=O)[C@H](CCC(N)=O)NC1=O) [i7-01s-54 (Ac-[Tat]-ALIQ(R8)[…](S5)RKR-NH2)]	311	
Ac-YGRKKRRQRRRVLFN[R8]LVDVIK[S5]RKV-NH2 (staple 16-23; SMILES CC[C@H](C)[C@@H]1NC(=O)[C@H](C(C)C)NC(=O)[C@H](CC(=O)O)NC(=O)[C@H](C(C)C)NC(=O)[C@H](CC(C)C)NC(=O)[C@](C)(NC(=O)[C@H](CC(N)=O)NC(=O)[C@H](Cc2ccccc2)NC(=O)[C@H](CC(C)C)NC(=O)[C@@H](NC(=O)[C@H](CCCNC(=N)N)NC(=O)[C@H](CCCNC(=N)N)NC(=O)[C@H](CCCNC(=N)N)NC(=O)[C@H](CCC(N)=O)NC(=O)[C@H](CCCNC(=N)N)NC(=O)[C@H](CCCNC(=N)N)NC(=O)[C@H](CCCCN)NC(=O)[C@H](CCCCN)NC(=O)[C@H](CCCNC(=N)N)NC(=O)CNC(=O)[C@H](Cc2ccc(O)cc2)NC(C)=O)C(C)C)CCCCCCC=CCCC[C@@](C)(C(=O)N[C@@H](CCCNC(=N)N)C(=O)N[C@@H](CCCCN)C(=O)N[C@H](C(N)=O)C(C)C)NC(=O)[C@H](CCCCN)NC1=O) [i7-01s-31 (Ac-[Tat]-VLFN(R8)[…](S5)RKV-NH2)]	0.33	10
